Legend:
MASP-2 in human serum [1] = biological target: T1, MASP-2 in human serum (human, UniProt O00187 16-686); test: cell-based or functional assay
MASP-2 in human serum [2] = biological target: T1, MASP-2 in human serum; test: cell-based or functional assay; remark: listed apart in the source

T1 sequence (O00187 16-686 limits assumed): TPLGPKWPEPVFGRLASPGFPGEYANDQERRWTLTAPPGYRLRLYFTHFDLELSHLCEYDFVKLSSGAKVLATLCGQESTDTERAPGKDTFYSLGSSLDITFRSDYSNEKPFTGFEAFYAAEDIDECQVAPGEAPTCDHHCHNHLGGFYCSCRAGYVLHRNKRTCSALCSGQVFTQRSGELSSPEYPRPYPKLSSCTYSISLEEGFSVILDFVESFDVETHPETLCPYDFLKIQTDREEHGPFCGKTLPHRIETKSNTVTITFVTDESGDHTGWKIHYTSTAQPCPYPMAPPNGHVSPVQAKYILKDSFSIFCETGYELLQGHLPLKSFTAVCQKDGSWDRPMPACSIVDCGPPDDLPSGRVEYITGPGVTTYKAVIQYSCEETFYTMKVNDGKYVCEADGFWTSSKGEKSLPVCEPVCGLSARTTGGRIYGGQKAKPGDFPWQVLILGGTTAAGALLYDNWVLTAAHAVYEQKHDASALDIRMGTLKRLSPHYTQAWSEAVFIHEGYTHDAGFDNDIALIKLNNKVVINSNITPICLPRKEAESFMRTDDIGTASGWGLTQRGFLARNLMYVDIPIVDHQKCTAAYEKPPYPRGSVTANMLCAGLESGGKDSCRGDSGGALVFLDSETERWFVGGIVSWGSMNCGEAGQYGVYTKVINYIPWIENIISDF

Binder	IC50, inhibition of C4b deposition (MASP-2 in human serum [1]) [pM]	IC50, inhibition of C3b deposition (MASP-2 in human serum [2]) [pM]
h16B11 H1K1 (antibody, V domains shown) VH: QMQLQESGPGLVKPSETLSLTCTVSGYSITSDYAWNWIRQPPGKGLEWIGYISYSGRTSYNPSLKSRVTISRDTSKNQFSLKLSSVTAADTAVYYCARHYGDYWGQGTLVTVSS VL: DIQMTQSPSSLSASVGDRVTITCRASQNVGTNVAWYQQKPGKAPKALIYSASYRESGVPSRFSGSGSGTDFTLTISSLQPEDFATYFCQQFNTNPLTFGGGTKVEIK	20	14
h16B11 H1K5 (antibody, V domains shown) VH: QMQLQESGPGLVKPSETLSLTCTVSGYSITSDYAWNWIRQPPGKGLEWIGYISYSGRTSYNPSLKSRVTISRDTSKNQFSLKLSSVTAADTAVYYCARHYGDYWGQGTLVTVSS VL: EIVMTQSPATLSVSPGERATLSCRASQNVGTNVAWYQQKPGQAPRLLIYSASYRESGIPARFSGSGSGTEFTLTISSLQSEDFAVYFCQQFNTNPLTFGGGTKVEIK	–	24
h16B11 H1K4 (antibody, V domains shown) VH: QMQLQESGPGLVKPSETLSLTCTVSGYSITSDYAWNWIRQPPGKGLEWIGYISYSGRTSYNPSLKSRVTISRDTSKNQFSLKLSSVTAADTAVYYCARHYGDYWGQGTLVTVSS VL: EIVMTQSPATLSVSPGERATLSCRASQNVGTNVAWYQQKPGQAPRALIYSASYRESGIPARFSGSGSGTEFTLTISSLQSEDFAVYFCQQFNTNPLTFGGGTKVEIK	–	15
h16B11 H1K3 (antibody, V domains shown) VH: QMQLQESGPGLVKPSETLSLTCTVSGYSITSDYAWNWIRQPPGKGLEWIGYISYSGRTSYNPSLKSRVTISRDTSKNQFSLKLSSVTAADTAVYYCARHYGDYWGQGTLVTVSS VL: DIQMTQSPSSLSASVGDRVTITCRASQNVGTNVAWYQQKPGKAPKALIYSASYRQSGVPSRFSGSGSGTDFTLTISSLQPEDFATYFCQQFNTNPLTFGGGTKVEIK	21	23
h3H6 H1K1 (antibody, V domains shown) VH: QVQLVQSGAEVKKPGSSVKVSCKASGYTFATYSIHWVRQAPGQGLEWMGYINPSSGYTNYNQKFQGRVTLTADKSTSTAYMELSSLRSEDTAVYYCARVYYTFYHAMDYWGQGTTVTVSS VL: DIQMTQSPSSLSASVGDRVTITCRASQDVNTAVAWYQQKPGKAPKLLIYSASYRYTGVPSRFSGSGSGTDFTLTISSLQPEDFATYYCQQHYNIPLTFGGGTKVEIK	14	30
h3H6 H3K1 (antibody, V domains shown) VH: QVQLVQSGAEVKKPGSSVKVSCKASGYTFATYSIHWVRQAPGQGLEWMGYINPSSGYTNYNQKFQGRVTITADKSTSTAYMELSSLRSEDTAVYYCARVYYTFYHAMDYWGQGTTVTVSS VL: DIQMTQSPSSLSASVGDRVTITCRASQDVNTAVAWYQQKPGKAPKLLIYSASYRYTGVPSRFSGSGSGTDFTLTISSLQPEDFATYYCQQHYNIPLTFGGGTKVEIK	17	34
h3H6 H4K1 (antibody, V domains shown) VH: QVQLVQSGAEVKKPGSSVKVSCKASGYTFATYSIHWVRQAPGQGLEWMGYINPSSGYTNYNQKFQGRVTITADESTSTAYMELSSLRSEDTAVYYCARVYYTFYHAMDYWGQGTTVTVSS VL: DIQMTQSPSSLSASVGDRVTITCRASQDVNTAVAWYQQKPGKAPKLLIYSASYRYTGVPSRFSGSGSGTDFTLTISSLQPEDFATYYCQQHYNIPLTFGGGTKVEIK	90	151
h3H6 H2K1 (antibody, V domains shown) VH: QVQLVQSGAEVKKPGSSVKVSCKASGYTFATYSIHWVRQAPGQGLEWMGYINPSSGYTNYNQKFQGRVTLTADESTSTAYMELSSLRSEDTAVYYCARVYYTFYHAMDYWGQGTTVTVSS VL: DIQMTQSPSSLSASVGDRVTITCRASQDVNTAVAWYQQKPGKAPKLLIYSASYRYTGVPSRFSGSGSGTDFTLTISSLQPEDFATYYCQQHYNIPLTFGGGTKVEIK	86	151
h16B11 H1K2 (antibody, V domains shown) VH: QMQLQESGPGLVKPSETLSLTCTVSGYSITSDYAWNWIRQPPGKGLEWIGYISYSGRTSYNPSLKSRVTISRDTSKNQFSLKLSSVTAADTAVYYCARHYGDYWGQGTLVTVSS VL: DIQMTQSPSSLSASVGDRVTITCRASQNVGTNVAWYQQKPGKAPKLLIYSASYRESGVPSRFSGSGSGTDFTLTISSLQPEDFATYFCQQFNTNPLTFGGGTKVEIK	51	40

Second part, the binder after the results:

IC50, inhibition of C4b deposition (MASP-2 in human serum [1]) [pM]	IC50, inhibition of C3b deposition (MASP-2 in human serum [2]) [pM]	Binder
–	18	h16B11 H2K6 (antibody, V domains shown) VH: QLQLQESGPGLVKPSETLSLTCTVSGYSITSDYAWNWIRQPPGKGLEWIGYISYSGRTSYNPSLKSRVTISRDTSKNQFSLKLSSVTAADTAVYYCARHYGDYWGQGTLVTVSS VL: EIVMTQSPATLSVSPGERATLSCRASQNVGTNVAWYQQKPGQAPRALIYSASYRQSGIPARFSGSGSGTEFTLTISSLQSEDFAVYFCQQFNTNPLTFGGGTKVEIK
–	52	h16B11 H3K4 (antibody, V domains shown) VH: QLQLQESGPGLVKPSETLSLTCTVSGYSITSDYAWNWIRQPPGKGLEWIGYISYSGRTSYNPSLKSRVTISVDTSKNQFSLKLSSVTAADTAVYYCARHYGDYWGQGTLVTVSS VL: EIVMTQSPATLSVSPGERATLSCRASQNVGTNVAWYQQKPGQAPRALIYSASYRESGIPARFSGSGSGTEFTLTISSLQSEDFAVYFCQQFNTNPLTFGGGTKVEIK
–	18	h16B11 H1K6 (antibody, V domains shown) VH: QMQLQESGPGLVKPSETLSLTCTVSGYSITSDYAWNWIRQPPGKGLEWIGYISYSGRTSYNPSLKSRVTISRDTSKNQFSLKLSSVTAADTAVYYCARHYGDYWGQGTLVTVSS VL: EIVMTQSPATLSVSPGERATLSCRASQNVGTNVAWYQQKPGQAPRALIYSASYRQSGIPARFSGSGSGTEFTLTISSLQSEDFAVYFCQQFNTNPLTFGGGTKVEIK
–	440	h16B11 H3K5 (antibody, V domains shown) VH: QLQLQESGPGLVKPSETLSLTCTVSGYSITSDYAWNWIRQPPGKGLEWIGYISYSGRTSYNPSLKSRVTISVDTSKNQFSLKLSSVTAADTAVYYCARHYGDYWGQGTLVTVSS VL: EIVMTQSPATLSVSPGERATLSCRASQNVGTNVAWYQQKPGQAPRLLIYSASYRESGIPARFSGSGSGTEFTLTISSLQSEDFAVYFCQQFNTNPLTFGGGTKVEIK
–	15	h16B11 H2K4 (antibody, V domains shown) VH: QLQLQESGPGLVKPSETLSLTCTVSGYSITSDYAWNWIRQPPGKGLEWIGYISYSGRTSYNPSLKSRVTISRDTSKNQFSLKLSSVTAADTAVYYCARHYGDYWGQGTLVTVSS VL: EIVMTQSPATLSVSPGERATLSCRASQNVGTNVAWYQQKPGQAPRALIYSASYRESGIPARFSGSGSGTEFTLTISSLQSEDFAVYFCQQFNTNPLTFGGGTKVEIK
–	71	h16B11 H3K6 (antibody, V domains shown) VH: QLQLQESGPGLVKPSETLSLTCTVSGYSITSDYAWNWIRQPPGKGLEWIGYISYSGRTSYNPSLKSRVTISVDTSKNQFSLKLSSVTAADTAVYYCARHYGDYWGQGTLVTVSS VL: EIVMTQSPATLSVSPGERATLSCRASQNVGTNVAWYQQKPGQAPRALIYSASYRQSGIPARFSGSGSGTEFTLTISSLQSEDFAVYFCQQFNTNPLTFGGGTKVEIK
–	32	h16B11 H2K5 (antibody, V domains shown) VH: QLQLQESGPGLVKPSETLSLTCTVSGYSITSDYAWNWIRQPPGKGLEWIGYISYSGRTSYNPSLKSRVTISRDTSKNQFSLKLSSVTAADTAVYYCARHYGDYWGQGTLVTVSS VL: EIVMTQSPATLSVSPGERATLSCRASQNVGTNVAWYQQKPGQAPRLLIYSASYRESGIPARFSGSGSGTEFTLTISSLQSEDFAVYFCQQFNTNPLTFGGGTKVEIK
20	17	h16B11 H2K1 (antibody, V domains shown) VH: QLQLQESGPGLVKPSETLSLTCTVSGYSITSDYAWNWIRQPPGKGLEWIGYISYSGRTSYNPSLKSRVTISRDTSKNQFSLKLSSVTAADTAVYYCARHYGDYWGQGTLVTVSS VL: DIQMTQSPSSLSASVGDRVTITCRASQNVGTNVAWYQQKPGKAPKALIYSASYRESGVPSRFSGSGSGTDFTLTISSLQPEDFATYFCQQFNTNPLTFGGGTKVEIK
83	146	h28O14 H1K1 (antibody, V domains shown) VH: QVQLVQSGAEVKKPGSSVKVSCKASGYTFRSHTMHWVRQAPGQGLEWMGYINPSTGYINYNQKFQGRVTLTADKSTSTAYMELSSLRSEDTAVYYCARSNYAYYYGMDYWGQGTTVTVSS VL: DIQMTQSPSSLSASVGDRVTITCRASQDVNTAVAWYQQKPGKAPKLLIYSASYRYTGVPSRFSGSGSGTDFTLTISSLQPEDFATYYCQQHYNIPLTFGGGTKVEIK
338	506	h28O14 H4K1 (antibody, V domains shown) VH: QVQLVQSGAEVKKPGSSVKVSCKASGYTFRSHTMHWVRQAPGQGLEWMGYINPSTGYINYNQKFQGRVTITADESTSTAYMELSSLRSEDTAVYYCARSNYAYYYGMDYWGQGTTVTVSS VL: DIQMTQSPSSLSASVGDRVTITCRASQDVNTAVAWYQQKPGKAPKLLIYSASYRYTGVPSRFSGSGSGTDFTLTISSLQPEDFATYYCQQHYNIPLTFGGGTKVEIK
64	161	h28O14 H3K1 (antibody, V domains shown) VH: QVQLVQSGAEVKKPGSSVKVSCKASGYTFRSHTMHWVRQAPGQGLEWMGYINPSTGYINYNQKFQGRVTITADKSTSTAYMELSSLRSEDTAVYYCARSNYAYYYGMDYWGQGTTVTVSS VL: DIQMTQSPSSLSASVGDRVTITCRASQDVNTAVAWYQQKPGKAPKLLIYSASYRYTGVPSRFSGSGSGTDFTLTISSLQPEDFATYYCQQHYNIPLTFGGGTKVEIK
324	483	h28O14 H2K1 (antibody, V domains shown) VH: QVQLVQSGAEVKKPGSSVKVSCKASGYTFRSHTMHWVRQAPGQGLEWMGYINPSTGYINYNQKFQGRVTLTADESTSTAYMELSSLRSEDTAVYYCARSNYAYYYGMDYWGQGTTVTVSS VL: DIQMTQSPSSLSASVGDRVTITCRASQDVNTAVAWYQQKPGKAPKLLIYSASYRYTGVPSRFSGSGSGTDFTLTISSLQPEDFATYYCQQHYNIPLTFGGGTKVEIK

Source: patent US20240067751A1 (KEYMED BIOSCIENCES, published 2024)
